From patent US7432061B2, “Assays for measuring matrix metalloproteinase activities” (BioZyme, Inc., priority 2002, dated 2008)

Legend:
stromelysin 1 = stromelysin 1 (Homo sapiens, UniProt P08254); assay: Inhibition with type II collagen, FlSub3 cleavage; assay type: biochemical; conditions: for Improvement In Selectivity (Strom1 v Col-3): 44 ug/ml Type II Collagen vs no Type II Collagen, FlSb3; for Average Percent Inhibition from 1.1 to 6.6 Hours / Average Percent Inhibition: STR1(.80 nM)
Method: (§1) In a 96 well plate, collagenase 3 (0.013 nM), collagenase 1 (1.25 nM), stromelysin 1 (0.8 nM), gelatinase A (0.025 nM), or gelatinase B (0.008 nM) were reacted with 20 uM FlSub3 in standard assay buffer in the presence of varying concentrations of bovine type II collagen (0.18-44 ug/ml). The type II collagen, a 1 mg/ml stock in 0.5M acetic acid, was transferred into assay buffer by passing the material through a biospin P6 column from Amersham. The reaction was initiated by addition of substrate to enzyme containing either buffer or an appropriate amount of type II collagen. Data points were taken every 15 min over a period of 15 hours using an excitation and emission wavelength of 350 and 485 nm respectively. The usable data (1-6 hours), was taken and the percent inhibition by type II collagen was calculated for each enzyme and plotted as a function of inhibitor concentration and time in the assay. It should be noted that the percent inhibition varies with time as the bovine substrate is consumed during the reaction course.

collagenase 1 = target: T1, collagenase 1 (Homo sapiens, UniProt P03956); assay: Inhibition with type II collagen, FlSub3 cleavage; assay type: biochemical; conditions: for Improvement In Selectivity (Col-1 v Col-3): 44 ug/ml Type II Collagen vs no Type II Collagen, FlSb3; for Average Percent Inhibition from 1.1 to 6.6 Hours / Average Percent Inhibition: COL1(1.25 nM)
T1 sequence (P03956 100-469): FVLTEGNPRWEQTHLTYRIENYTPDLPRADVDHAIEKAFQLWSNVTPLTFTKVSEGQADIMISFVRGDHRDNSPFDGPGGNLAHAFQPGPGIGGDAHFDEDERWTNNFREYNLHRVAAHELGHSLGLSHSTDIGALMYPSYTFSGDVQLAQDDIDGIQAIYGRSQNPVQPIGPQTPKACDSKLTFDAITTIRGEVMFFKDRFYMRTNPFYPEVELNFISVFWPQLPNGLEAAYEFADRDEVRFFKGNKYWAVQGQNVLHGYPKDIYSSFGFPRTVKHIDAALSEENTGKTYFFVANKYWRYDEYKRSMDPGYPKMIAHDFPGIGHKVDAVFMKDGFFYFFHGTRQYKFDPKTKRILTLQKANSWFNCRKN
Method: as §1

[1] = TypeIICOL(1.6 ug/ul), FISb3, hour 0.10 to 1.10
[2] = TypeIICOL(1.6 ug/ul), FISb3, hour 1.10 to 2.10
[3] = TypeIICOL(1.6 ug/ul), FISb3, hour 1.10 to 6.60
[4] = TypeIICOL(1.6 ug/ul), FISb3, hour 2.10 to 3.10
[5] = TypeIICOL(1.6 ug/ul), FISb3, hour 3.10 to 4.10
[6] = TypeIICOL(1.6 ug/ul), FISb3, hour 4.10 to 5.10
[7] = TypeIICOL(1.6 ug/ul), FISb3, hour 5.10 to 6.10
[8] = TypeIICOL(4.9 ug/ul), FISb3, hour 0.10 to 1.10
[9] = TypeIICOL(4.9 ug/ul), FISb3, hour 1.10 to 2.10
[10] = TypeIICOL(4.9 ug/ul), FISb3, hour 1.10 to 6.60
[11] = TypeIICOL(4.9 ug/ul), FISb3, hour 2.10 to 3.10
[12] = TypeIICOL(4.9 ug/ul), FISb3, hour 3.10 to 4.10
[13] = TypeIICOL(4.9 ug/ul), FISb3, hour 4.10 to 5.10
[14] = TypeIICOL(4.9 ug/ul), FISb3, hour 5.10 to 6.10
[15] = TypeIICOL(15 ug/ul), FISb3, hour 0.10 to 1.10
[16] = TypeIICOL(15 ug/ul), FISb3, hour 1.10 to 2.10
[17] = TypeIICOL(15 ug/ul), FISb3, hour 1.10 to 6.60
[18] = TypeIICOL(15 ug/ul), FISb3, hour 2.10 to 3.10
[19] = TypeIICOL(15 ug/ul), FISb3, hour 3.10 to 4.10
[20] = TypeIICOL(15 ug/ul), FISb3, hour 4.10 to 5.10
[21] = TypeIICOL(15 ug/ul), FISb3, hour 5.10 to 6.10
[22] = TypeIICOL(44 ug/ul), FISb3, hour 0.10 to 1.10
[23] = TypeIICOL(44 ug/ul), FISb3, hour 1.10 to 2.10
[24] = TypeIICOL(44 ug/ul), FISb3, hour 1.10 to 6.60
[25] = TypeIICOL(44 ug/ul), FISb3, hour 2.10 to 3.10
[26] = TypeIICOL(44 ug/ul), FISb3, hour 3.10 to 4.10
[27] = TypeIICOL(44 ug/ul), FISb3, hour 4.10 to 5.10
[28] = TypeIICOL(44 ug/ul), FISb3, hour 5.10 to 6.10
[29] = TypeIICOL(.18 ug/ul), FISb3, hour 0.10 to 1.10
[30] = TypeIICOL(.18 ug/ul), FISb3, hour 1.10 to 2.10
[31] = TypeIICOL(.18 ug/ul), FISb3, hour 1.10 to 6.60
[32] = TypeIICOL(.18 ug/ul), FISb3, hour 2.10 to 3.10
[33] = TypeIICOL(.18 ug/ul), FISb3, hour 3.10 to 4.10
[34] = TypeIICOL(.18 ug/ul), FISb3, hour 4.10 to 5.10
[35] = TypeIICOL(.18 ug/ul), FISb3, hour 5.10 to 6.10

stromelysin 1, sequence (P08254 100-477): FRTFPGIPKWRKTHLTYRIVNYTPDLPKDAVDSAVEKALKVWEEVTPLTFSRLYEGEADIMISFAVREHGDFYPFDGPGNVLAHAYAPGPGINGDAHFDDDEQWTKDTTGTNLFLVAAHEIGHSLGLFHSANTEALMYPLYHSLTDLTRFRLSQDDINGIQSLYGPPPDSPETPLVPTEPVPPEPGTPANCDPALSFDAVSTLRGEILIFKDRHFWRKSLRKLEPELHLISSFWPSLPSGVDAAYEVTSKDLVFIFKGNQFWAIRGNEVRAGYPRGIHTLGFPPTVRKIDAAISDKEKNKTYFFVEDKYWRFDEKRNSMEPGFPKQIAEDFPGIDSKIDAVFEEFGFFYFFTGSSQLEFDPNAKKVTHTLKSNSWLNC

## Type II Collagen: bovine type II collagen, full length MMP substrate used as inhibitor of gelatinases
Stromelysin 1
  Improvement In Selectivity (Strom1 v Col-3): 2.5 fold
Stromelysin 1; listed as collagen
  Improvement In Selectivity (Strom1 v Col-3): four
Stromelysin 1; Type II Collagen 0.18 ug/ml
  Average Percent Inhibition from 1.1 to 6.6 Hours: 15%
Stromelysin 1; Type II Collagen 0.54 ug/ml
  Average Percent Inhibition from 1.1 to 6.6 Hours: 13%
Stromelysin 1; Type II Collagen 1.63 ug/ml
  Average Percent Inhibition from 1.1 to 6.6 Hours: 19%
Stromelysin 1; Type II Collagen 4.89 ug/ml
  Average Percent Inhibition from 1.1 to 6.6 Hours: 12%
Stromelysin 1; Type II Collagen 14.67 ug/ml
  Average Percent Inhibition from 1.1 to 6.6 Hours: 18%
Stromelysin 1; Type II Collagen 44.00 ug/ml
  Average Percent Inhibition from 1.1 to 6.6 Hours: 19%
Stromelysin 1; [1]
  Average Percent Inhibition: −10%
Stromelysin 1; [2]
  Average Percent Inhibition: 24%
Stromelysin 1; [3]
  Average Percent Inhibition: 19%
Stromelysin 1; [4]
  Average Percent Inhibition: 22%
Stromelysin 1; [5]
  Average Percent Inhibition: 18%
Stromelysin 1; [6]
  Average Percent Inhibition: 17%
Stromelysin 1; [7]
  Average Percent Inhibition: 16%
Stromelysin 1; [8]
  Average Percent Inhibition: 50%
Stromelysin 1; [9]
  Average Percent Inhibition: 23%
Stromelysin 1; [10]
  Average Percent Inhibition: 12%
Stromelysin 1; [11]
  Average Percent Inhibition: 11%
Stromelysin 1; [12]
  Average Percent Inhibition: 8%
Stromelysin 1; [13]
  Average Percent Inhibition: 8%
Stromelysin 1; [14]
  Average Percent Inhibition: 8%
Stromelysin 1; [15]
  Average Percent Inhibition: 57%
Stromelysin 1; [16]
  Average Percent Inhibition: 28%
Stromelysin 1; [17]
  Average Percent Inhibition: 18%
Stromelysin 1; [18]
  Average Percent Inhibition: 18%
Stromelysin 1; [19]
  Average Percent Inhibition: 14%
Stromelysin 1; [20]
  Average Percent Inhibition: 13%
Stromelysin 1; [21]
  Average Percent Inhibition: 14%
Stromelysin 1; [22]
  Average Percent Inhibition: 62%
Stromelysin 1; [23]
  Average Percent Inhibition: 32%
Stromelysin 1; [24]
  Average Percent Inhibition: 19%
Stromelysin 1; [25]
  Average Percent Inhibition: 18%
Stromelysin 1; [26]
  Average Percent Inhibition: 14%
Stromelysin 1; [27]
  Average Percent Inhibition: 14%
Stromelysin 1; [28]
  Average Percent Inhibition: 14%
Stromelysin 1; [29]
  Average Percent Inhibition: 22%
Stromelysin 1; [30]
  Average Percent Inhibition: 22%
Stromelysin 1; [31]
  Average Percent Inhibition: 15%
Stromelysin 1; [32]
  Average Percent Inhibition: 15%
Stromelysin 1; [33]
  Average Percent Inhibition: 12%
Stromelysin 1; [34]
  Average Percent Inhibition: 12%
Stromelysin 1; [35]
  Average Percent Inhibition: 12%
Stromelysin 1; TypeIICOL(.55 ug/ul), FLSb3, hour 0.10 to 1.10
  Average Percent Inhibition: 43%
Stromelysin 1; TypeIICOL(.55 ug/ul), FLSb3, hour 1.10 to 2.10
  Average Percent Inhibition: 26%
Stromelysin 1; TypeIICOL(.55 ug/ul), FLSb3, hour 1.10 to 6.60
  Average Percent Inhibition: 13%
Stromelysin 1; TypeIICOL(.55 ug/ul), FLSb3, hour 2.10 to 3.10
  Average Percent Inhibition: 14%
Stromelysin 1; TypeIICOL(.55 ug/ul), FLSb3, hour 3.10 to 4.10
  Average Percent Inhibition: 10%
Stromelysin 1; TypeIICOL(.55 ug/ul), FLSb3, hour 4.10 to 5.10
  Average Percent Inhibition: 8%
Stromelysin 1; TypeIICOL(.55 ug/ul), FLSb3, hour 5.10 to 6.10
  Average Percent Inhibition: 8%
Collagenase 1
  Improvement In Selectivity (Col-1 v Col-3): 2.5 fold
Collagenase 1; listed as collagen
  Improvement In Selectivity (Col-1 v Col-3): four
Collagenase 1; Type II Collagen 0.18 ug/ml
  Average Percent Inhibition from 1.1 to 6.6 Hours: 0%
Collagenase 1; Type II Collagen 0.54 ug/ml
  Average Percent Inhibition from 1.1 to 6.6 Hours: 3%
Collagenase 1; Type II Collagen 1.63 ug/ml
  Average Percent Inhibition from 1.1 to 6.6 Hours: 0%
Collagenase 1; Type II Collagen 4.89 ug/ml
  Average Percent Inhibition from 1.1 to 6.6 Hours: 2%
Collagenase 1; Type II Collagen 14.67 ug/ml
  Average Percent Inhibition from 1.1 to 6.6 Hours: 10%
Collagenase 1; Type II Collagen 44.00 ug/ml
  Average Percent Inhibition from 1.1 to 6.6 Hours: 15%
Collagenase 1; [1]
  Average Percent Inhibition: 19%
Collagenase 1; [2]
  Average Percent Inhibition: 6%
Collagenase 1; [3]
  Average Percent Inhibition: 0%
Collagenase 1; [4]
  Average Percent Inhibition: 0%
Collagenase 1; [5]
  Average Percent Inhibition: −2%
Collagenase 1; [6]
  Average Percent Inhibition: −3%
Collagenase 1; [7]
  Average Percent Inhibition: −4%
Collagenase 1; [8]
  Average Percent Inhibition: 37%
Collagenase 1; [9]
  Average Percent Inhibition: 13%
Collagenase 1; [10]
  Average Percent Inhibition: 2%
Collagenase 1; [11]
  Average Percent Inhibition: 3%
Collagenase 1; [12]
  Average Percent Inhibition: 0%
Collagenase 1; [13]
  Average Percent Inhibition: −2%
Collagenase 1; [14]
  Average Percent Inhibition: −4%
Collagenase 1; [15]
  Average Percent Inhibition: 44%
Collagenase 1; [16]
  Average Percent Inhibition: 21%
Collagenase 1; [17]
  Average Percent Inhibition: 10%
Collagenase 1; [18]
  Average Percent Inhibition: 12%
Collagenase 1; [19]
  Average Percent Inhibition: 8%
Collagenase 1; [20]
  Average Percent Inhibition: 6%
Collagenase 1; [21]
  Average Percent Inhibition: 4%
Collagenase 1; [22]
  Average Percent Inhibition: 50%
Collagenase 1; [23]
  Average Percent Inhibition: 29%
Collagenase 1; [24]
  Average Percent Inhibition: 15%
Collagenase 1; [25]
  Average Percent Inhibition: 18%
Collagenase 1; [26]
  Average Percent Inhibition: 12%
Collagenase 1; [27]
  Average Percent Inhibition: 9%
Collagenase 1; [28]
  Average Percent Inhibition: 7%
Collagenase 1; [29]
  Average Percent Inhibition: 17%
Collagenase 1; [30]
  Average Percent Inhibition: 3%
Collagenase 1; [31]
  Average Percent Inhibition: 0%
Collagenase 1; [32]
  Average Percent Inhibition: 0%
Collagenase 1; [33]
  Average Percent Inhibition: −1%
Collagenase 1; [34]
  Average Percent Inhibition: −1%
Collagenase 1; [35]
  Average Percent Inhibition: −1%
Collagenase 1; TypeIICOL(.55 ug/ul), FISb3, hour 0.10 to 1.10
  Average Percent Inhibition: 15%
Collagenase 1; TypeIICOL(.55 ug/ul), FISb3, hour 1.10 to 2.10
  Average Percent Inhibition: 6%
Collagenase 1; TypeIICOL(.55 ug/ul), FISb3, hour 1.10 to 6.60
  Average Percent Inhibition: 3%
Collagenase 1; TypeIICOL(.55 ug/ul), FISb3, hour 2.10 to 3.10
  Average Percent Inhibition: 3%
Collagenase 1; TypeIICOL(.55 ug/ul), FISb3, hour 3.10 to 4.10
  Average Percent Inhibition: 2%
Collagenase 1; TypeIICOL(.55 ug/ul), FISb3, hour 4.10 to 5.10
  Average Percent Inhibition: 1%
Collagenase 1; TypeIICOL(.55 ug/ul), FISb3, hour 5.10 to 6.10
  Average Percent Inhibition: 1%
Collagenase 1; early timepoints, FlSub3
  inhibition of collagenase 1 by type II collagen: small but significant inhibition
